Biological target: human TLR5 (HEK-Blue hTLR5 reporter cells) (human) (UniProt O60602)
Assay: cell-based or functional assay

UniProt O60602, sequence (O60602 21-858): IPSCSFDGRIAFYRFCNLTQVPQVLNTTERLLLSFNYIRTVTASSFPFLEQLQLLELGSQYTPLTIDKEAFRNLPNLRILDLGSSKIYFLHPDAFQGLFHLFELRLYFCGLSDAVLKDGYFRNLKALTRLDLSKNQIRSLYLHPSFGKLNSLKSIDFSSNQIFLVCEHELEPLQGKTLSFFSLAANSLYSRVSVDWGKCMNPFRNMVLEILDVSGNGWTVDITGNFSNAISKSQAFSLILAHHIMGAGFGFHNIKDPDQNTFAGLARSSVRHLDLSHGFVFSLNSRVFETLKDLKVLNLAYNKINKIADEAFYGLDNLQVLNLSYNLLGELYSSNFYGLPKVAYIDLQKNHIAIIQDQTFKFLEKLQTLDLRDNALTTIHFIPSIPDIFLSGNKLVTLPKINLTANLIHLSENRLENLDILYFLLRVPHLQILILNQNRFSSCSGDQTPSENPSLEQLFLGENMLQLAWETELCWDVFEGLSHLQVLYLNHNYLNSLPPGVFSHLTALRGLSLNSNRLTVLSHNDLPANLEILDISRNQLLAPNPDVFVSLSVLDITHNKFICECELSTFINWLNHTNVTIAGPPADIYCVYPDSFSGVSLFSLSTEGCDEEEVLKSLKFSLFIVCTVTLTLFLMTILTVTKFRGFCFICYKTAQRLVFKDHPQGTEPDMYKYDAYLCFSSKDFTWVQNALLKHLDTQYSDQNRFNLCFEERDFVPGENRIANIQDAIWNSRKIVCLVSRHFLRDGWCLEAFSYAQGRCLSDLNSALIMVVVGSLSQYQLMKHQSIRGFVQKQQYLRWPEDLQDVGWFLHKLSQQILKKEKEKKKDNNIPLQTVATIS

## Recombinant purified flagellin protein FlaAMRx0518 (Enterococcus gallinarum MRx0518 flagellin, N-terminal 6xHis tag) (ligand)
  potency of TLR5 response against FlaADSM100110 (HEK-Blue hTLR5 SEAP reporter) (fold against FlaADSM100110): 5

From US20210138058A1
